Test [1] deals with T1, human PD-L1 on CHO-K1 cells (CHO-K1/hPD-L1, Nanjing Genscript, M00543) (human, UniProt Q9NZQ7 19-290).
T1 construct: whole, on cells; also called CHO-K1 cells overexpressing human PD-L1; human PD-L1 on the cell surface
Put plainly: flow cytometry competition: biotin-hPD-1 binding to CHO-K1/hPD-L1 cells.
Experimental: (§1) In brief, the CHO-K1/hPD-L1 cells were digested, and resuspended in F-12K complete medium. The cell density was adjusted to 1× 10⁶ cells/mL. […] Cells were placed at 4° C., and were incubated away from light for 1 hr. Then, the cells were centrifugated at 4° C. for 5 mins, and the supernatant was discarded. […] The cells were washed with 100 μL/well of pre-cooled PBS twice, centrifuged at 500 g, 4° C. for 5 mins, and the supernatant was discarded. […] 200 μL/well of pre-cooled PBS was used to wash cells twice, cells were centrifuged at 500 g, 4° C. for 5 mins, the supernatant was discarded. Finally, 200 μL/well of pre-cooled PBS was used to resuspend cells. The BD FACS MAYTOII was used to read the signal value of fluorescent luminescence. The software GraphPad Prism 8 was applied to perform data processing and plotting analysis, and the parameters such as binding curves and IC50 values were obtained by four-parameter non-linear fitting.

Test [2] deals with T2, Human PD-L1 (Acrobiosystems, PD1-H5229) (human, UniProt Q9NZQ7 19-238).
T2 construct: bought reagent; also called human PD-L1 protein
As to the kind of experiment: ELISA, coated human PD-L1. A general note: ELISA stands for enzyme-linked immunosorbent assay.
Experimental: After the liquid was discarded, the PBST buffer (pH 7.4, containing 0.05% tween-20) was used to wash the plate for 3 times. 250 μL of 2% BSA blocking buffer was added, and was incubated at the condition of 37° C. for 1 hr. The blocking buffer was discarded, and the PBST buffer (pH 7.4, containing 0.05% tween-20) was used to wash the plate for 3 times. The antigen binding proteins to be tested, serially diluted 5-fold starting from the concentration of 100 nM, 8 concentration gradients in total, were added at 100 μL per well, and were then incubated at 37° C. for 1 hr. […] After washing with PBST buffer (pH 7.4, containing 0.05% tween-20) for three times, the goat anti-human HRP secondary antibody (Invitrogen, A18805) that was diluted 4000-fold was added, and was incubated away from light at the condition of 37° C. for 1 hr. After washing by PBST buffer (pH 7.4, containing 0.05% tween-20) for three times, 100 μL/well of TMB (Biopanda, TMB-S-003) was added, and was placed away from light at room temperature for about 5 mins; stop solution (BBI life sciences, E661006-0200) was added to each well at 50 μL/well to stop the reaction. The Microplate Reader Enspire (PerkinElemer) was used to detect the absorption values at 450 nm (OD450). The software GraphPad Prism 8 was applied to perform data processing and plotting analysis, the parameters such as binding curves and EC50 values were obtained by four-parameter non-linear fitting.

In test [3] the target is T3, human PD-L1 on Hep3B cells co-expressing human PD-L1 and OS8 (human, UniProt Q9NZQ7 19-290). As to the kind of experiment: cell-based or functional assay.
T3 sequence (Q9NZQ7 19-290): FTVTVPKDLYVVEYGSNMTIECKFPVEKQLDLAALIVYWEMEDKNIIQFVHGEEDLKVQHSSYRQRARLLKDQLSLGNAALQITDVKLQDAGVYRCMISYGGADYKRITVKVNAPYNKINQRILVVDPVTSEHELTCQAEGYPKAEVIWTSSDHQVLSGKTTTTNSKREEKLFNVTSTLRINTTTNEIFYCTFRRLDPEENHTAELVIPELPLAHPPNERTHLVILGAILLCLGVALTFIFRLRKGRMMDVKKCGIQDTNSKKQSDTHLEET
Test [4] deals with T4, human PD-L1 protein with histidine tag (NovoProtein, C315) (human, UniProt Q9NZQ7 19-239, limits assumed, biotinylated with EZ-Link Sulfo-NHS-LC-Biotin in the epitope competition experiments (Examples 8 and 20); not biotinylated in the affinity experiments).
T4 construct: bought reagent; also called biotinylated PD-L1 protein; not shown: histidine tag
T4 sequence (Q9NZQ7 19-239 limits assumed): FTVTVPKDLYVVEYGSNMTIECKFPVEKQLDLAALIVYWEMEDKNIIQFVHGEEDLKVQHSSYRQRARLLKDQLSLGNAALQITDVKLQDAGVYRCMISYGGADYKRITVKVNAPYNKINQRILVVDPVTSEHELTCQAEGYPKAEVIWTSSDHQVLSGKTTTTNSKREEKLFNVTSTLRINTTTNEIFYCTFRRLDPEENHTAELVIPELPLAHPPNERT
Put plainly: BLI (Octet), antibody on AHC sensor, antigen 60 nM, 1:1 local fit.

Test [5] addresses T5, cynomolgus PD-L1 on CHO-K1 cells (CHO-K1/cynoPD-L1, Nanjing Genscript, M00573) (cynomolgus, UniProt G7PSE7 19-290).
T5 construct: also called CHO-K1 cells overexpressing cynomolgus PD-L1
Put plainly: flow cytometry on CHO-K1/cynoPD-L1 cells. (In flow cytometry, cells or beads pass a laser one at a time.)
Text: To study the binding activity of the PD-L1 antigen binding proteins to human/cynomolgus PD-L1 in vitro, this example uses the CHOK1 cell line overexpressing human PD-L1 (CHO-K1/hPD-L1, Nanjing Genscript, M00543) or the CHOK1 cell line overexpressing cynomolgus PD-L1 (CHO-K1/cynoPD-L1, Nanjing Genscript, M00573) to perform binding experiments at cellular level. In brief, the PD-L1 cells were digested, and resuspended in F-12K complete medium, and the cell density was adjusted to 1× 10⁶ cells/mL. […] The cells were placed at 4° C., incubated away from light for 1 hr. Then, 100 μL/well of pre-cooled PBS was added to wash cells twice. The cells were centrifuged at 500 g, 4° C. for 5 mins, and the supernatant was discarded. […] 200 μL/well of pre-cooled PBS was added to wash cells twice, and the cells were centrifuged at 500 g, 4° C. for 5 mins, and the supernatant was discarded. Finally, the cells were resuspended with 200 μL/well of pre-cooled PBS. The signal values of fluorescent luminescence were read using BD FACS MAYTOII. The flow cytometer BD FAC MAYTOII was used to read the signal values of fluorescent luminescence, and the software FlowJo v10 (FlowJo, LLC) was used to process and analyze data. The software GraphPad Prism 8 was applied to perform data processing and plotting analysis, and the parameters such as binding curves and EC50 values were obtained by four-parameter non-linear fitting.

Test [6] concerns the target T4, human PD-L1 protein with histidine tag …. Put plainly: BLI (Octet), antibody on AHC sensor, antigen 50~1.56 nM, 1:1 global fit.
Experimental: When using Octet Data Analysis software (Fortebio, version 11.0) for data analysis, the double deduction mode (double reference) was selected to deduct the reference signal, the “1:1 Global fitting” method was selected for data fitting, the kinetic parameters of the binding of the antigen and the antigen binding proteins were calculated, and the kₒₙ (1/Ms) values, kdis (1/s) values and KD (M) values were obtained.
In test [7] the target is T1, human PD-L1 on CHO-K1 cells …. As to the kind of experiment: flow cytometry on CHO-K1/hPD-L1 cells.
Text: (§2) To study the binding activity of the PD-L1 antigen binding proteins to human/cynomolgus PD-L1 in vitro, this example uses the CHOK1 cell line overexpressing human PD-L1 (CHO-K1/hPD-L1, Nanjing Genscript, M00543) or the CHOK1 cell line overexpressing cynomolgus PD-L1 (CHO-K1/cynoPD-L1, Nanjing Genscript, M00573) to perform binding experiments at cellular level. In brief, the PD-L1 cells were digested, and resuspended in F-12K complete medium, and the cell density was adjusted to 1× 10⁶ cells/mL. […] The cells were placed at 4° C., incubated away from light for 1 hr. Then, 100 μL/well of pre-cooled PBS was added to wash cells twice. The cells were centrifuged at 500 g, 4° C. for 5 mins, and the supernatant was discarded. […] 200 μL/well of pre-cooled PBS was added to wash cells twice, and the cells were centrifuged at 500 g, 4° C. for 5 mins, and the supernatant was discarded. Finally, the cells were resuspended with 200 μL/well of pre-cooled PBS. The signal values of fluorescent luminescence were read using BD FACS MAYTOII. The flow cytometer BD FAC MAYTOII was used to read the signal values of fluorescent luminescence, and the software FlowJo v10 (FlowJo, LLC) was used to process and analyze data. […]
The target is the same in test [8]. As to the kind of experiment: flow cytometry on CHO-K1/hPD-L1 cells. The source holds these as a separate data set.
Text: as §2
Test [9] shares this target. Put plainly: flow cytometry competition: biotin-hPD-1 binding to CHO-K1/hPD-L1 cells. The source holds these as a separate data set.
Experimental: as §1
Test [10] addresses T3, human PD-L1 on Hep3B cells …. As to the kind of experiment: cell-based or functional assay. This is another data set of the same source.
Test [11] concerns the target T1, human PD-L1 on CHO-K1 cells …. As to the kind of experiment: flow cytometry competition: biotin-hPD-1 binding to CHO-K1/hPD-L1 cells. This is another data set of the same source.
Experimental: as §1

Changes are numbered by the printed parent chain. Numbers in names are those of the source. Where two headings read alike, the source gives them in different places.

Broadly, the IC50 is the concentration needed to halve the response being measured. A low value points to greater potency in that assay. By EC50 is commonly meant the concentration that produces a half-maximal response. What is called Kd is a measure of binding affinity in units of concentration. Broadly, the koff is the rate constant with which the complex falls apart. The low end stands for a long-lived complex, the high end for a short-lived complex. Broadly, the kon is the rate constant with which the complex forms. Low readings indicate slower complex formation, high ones faster complex formation.

T5 sequence (G7PSE7 entry or part of it limits assumed, one chain of several): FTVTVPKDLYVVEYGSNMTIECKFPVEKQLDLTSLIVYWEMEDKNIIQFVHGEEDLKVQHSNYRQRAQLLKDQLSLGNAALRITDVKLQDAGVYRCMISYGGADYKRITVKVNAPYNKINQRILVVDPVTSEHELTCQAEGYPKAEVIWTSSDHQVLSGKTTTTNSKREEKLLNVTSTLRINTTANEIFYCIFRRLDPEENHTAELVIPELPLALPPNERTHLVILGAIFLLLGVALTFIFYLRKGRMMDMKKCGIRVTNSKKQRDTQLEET
T2 sequence (Q9NZQ7 19-238 limits assumed): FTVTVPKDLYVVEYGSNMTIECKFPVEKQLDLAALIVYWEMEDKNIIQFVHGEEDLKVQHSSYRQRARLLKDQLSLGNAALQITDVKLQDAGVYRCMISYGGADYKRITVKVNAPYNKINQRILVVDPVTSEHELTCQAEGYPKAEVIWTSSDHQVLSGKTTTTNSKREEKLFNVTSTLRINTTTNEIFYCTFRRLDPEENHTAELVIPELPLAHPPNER
T1 sequence (Q9NZQ7 19-290, one chain of several): as the sequence (Q9NZQ7 19-290) above

B1: PR000265 (antibody, human IgG1, kappa, N297A)
heavy: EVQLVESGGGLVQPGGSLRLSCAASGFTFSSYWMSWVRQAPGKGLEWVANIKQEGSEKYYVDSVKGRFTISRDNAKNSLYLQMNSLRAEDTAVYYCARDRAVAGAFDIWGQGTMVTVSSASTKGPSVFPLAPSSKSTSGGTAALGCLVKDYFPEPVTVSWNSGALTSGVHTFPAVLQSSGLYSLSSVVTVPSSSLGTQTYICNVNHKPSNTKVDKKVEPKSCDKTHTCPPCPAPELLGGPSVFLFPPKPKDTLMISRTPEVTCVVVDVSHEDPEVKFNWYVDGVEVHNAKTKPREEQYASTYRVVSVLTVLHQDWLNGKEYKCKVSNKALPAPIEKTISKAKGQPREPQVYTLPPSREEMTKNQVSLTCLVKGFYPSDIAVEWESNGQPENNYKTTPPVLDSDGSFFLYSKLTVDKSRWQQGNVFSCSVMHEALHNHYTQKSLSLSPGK
light: DIQMTQSPSTLSASVGDRVTVTCRASQSIYIWLAWYQQKPGKAPNLLIYKASSLETGVPSRFSGSGSGTEFTLTISSLQPDDFATYYCQQYYGSSRTFGQGTKVEIKRTVAAPSVFIFPPSDEQLKSGTASVVCLLNNFYPREAKVQWKVDNALQSGNSQESVTEQDSKDSTYSLSSTLTLSKADYEKHKVYACEVTHQGLSSPVTKSFNRGEC
notes: heavy chain human IgG1 (N297A)
B1: in [1], the IC50 was found to be 0.604 nM and the “Maximum inhibition rate (%)” value stood at 93.6%. Further, in [2], a half-maximal effect (EC50) was put at 0.0373 nM. Moreover, in test [3], the “EC50 (nM), PD-1 / NFAT-luciferase reporter” value turned out to be 0.533 nM and the “Maximum fluorescence value (RLU)” value is 50700 RLU. In test [4], this molecule returned a Kd of 0.409 nM, a koff of 0.000106 s⁻¹ and a kon of 260000 M⁻¹ s⁻¹. Moreover, in [5], the EC50 is 0.451 nM and the MFI maximum value was 22600 MFI. In [6], the Kd stood at 0.106 nM, the koff came to 7.09e-05 s⁻¹ and the kon is 669000 M⁻¹ s⁻¹.

B2: PR000416 (antibody, human IgG1, kappa)
heavy: not shown
light: B1 light
notes: PR000265 with the heavy chain constant region replaced by the human IgG1 constant region without mutation; also called Fc-type switching of PR000265
In [7], B2 had an EC50 of 0.259 nM and an MFI maximum value of 40400 MFI. Also, in [8], the EC50 was 0.231 nM and the MFI maximum value was 37900 MFI. The same molecule gave an IC50 in [9] of 0.19 nM. In addition, in test [10], the “EC50 (nM), PD-1 reporter gene cell line” value is 0.077 nM and the “Maximum fluorescence value (RLU)” value was 3660 RLU. Further, the IC50 in test [11] amounted to 0.127 nM.

B3: PR000266 (antibody, human IgG1, kappa, N297A, V domains shown)
VH: EVQLVESGGGLVQPGGSLRLSCAASGFTFSSYWMSWVRQAPGKGLEWVANIKQDASEKYYVDSVKGRFTISRDNAKNSLYLQMNSLRAEDTAVYYCARDRAVAGAFDIWGQGTMVTVSS
VL: DIQMTQSPSTLSASVGDRVTVTCRASQSIYIWLAWYQQKPGKAPNLLIYKASSLETGVPSRFSGSGSGTEFTLTISSLQPDDFATYYCQQYYGSSRTFGQGTKVEIKR
notes: as for B1
Regarding B3, in [1], the IC50 turned out to be 0.838 nM and the “Maximum inhibition rate (%)” value stood at 91.5%. Also, in [2], the EC50 amounted to 0.0415 nM. Moreover, in [3], the “EC50 (nM), PD-1 / NFAT-luciferase reporter” value is 0.68 nM and the “Maximum fluorescence value (RLU)” value was found to be 48400 RLU. In addition, in test [4], the Kd stood at 0.349 nM, the koff turned out to be 9.62e-05 s⁻¹ and the kon was found to be 276000 M⁻¹ s⁻¹. Further, in [5], the EC50 came out at 0.562 nM and the MFI maximum value was 22400 MFI.

B4: PR000267 (antibody, human IgG1, kappa, N297A, V domains shown)
VH: B3 VH with D54E, A55G, V61G, D90E, F106S
VL: B3 VL with V21I, Y30S, I31S, S94Y
notes: as for B1
For the molecule B4, in test [1], the IC50 was found to be 1.04 nM and the “Maximum inhibition rate (%)” value stood at 91%. The EC50 in [2] was 0.0462 nM. Moreover, in test [3], the “EC50 (nM), PD-1 / NFAT-luciferase reporter” value is 0.796 nM and the “Maximum fluorescence value (RLU)” value is 43000 RLU. In [5], this molecule yielded an EC50 of 0.775 nM and an MFI maximum value of 22400 MFI.

B5: PR000268 (antibody, human IgG1, kappa, N297A, V domains shown)
VH: B3 VH with V61G, D90E, F106S
VL: B3 VL with V21I, Y30S, I31S, S94Y
notes: as for B1
In the case of B5, in test [1], the IC50 was 1.16 nM and the “Maximum inhibition rate (%)” value was determined as 91.3%. This molecule yielded an EC50 in test [2] of 0.0412 nM. For the same molecule, in test [3], the “EC50 (nM), PD-1 / NFAT-luciferase reporter” value came out at 0.759 nM and the “Maximum fluorescence value (RLU)” value was 45500 RLU. In test [5], the EC50 stood at 0.759 nM and the MFI maximum value was determined as 22200 MFI.

The record behind these values is US20260258137A1 (HARBOUR BIOMED SHANGHAI, published 2026).
